One molecule from patent US11851495 (Boehringer Ingelheim, dated 2023) can be followed below.

This assay addresses T1, cadherin-17 (CDH17) (human, UniProt Q12864 23-832).
T1 construct: whole, on cells; not detected on HepG2 cells
Put plainly: flow cytometry (FACS) on Colo-205 cells, antibody as primary reagent. The protocol:
TRAILR2 and CDH17 protein surface expression on the Colo-205 cells was analyzed as follows. Cells were detached using Accutase (Sigma A6964) and washed twice with FACS buffer (PBS, Gibco 14190; 3% FCS, Gibco 26140; and 0.09% NaN_3, Sigma Aldrich S2002).
After seeding the cells, the plate was centrifuged at 1200 rpm for 5 minutes and the supernatant were discarded. Cells were then incubated for 60 min at 4° C. with 100p/well of the primary antibody appropriated dilution. Cells were washed twice with FACS buffer and 100p/well of the appropriated dilution of secondary/conjugated antibodies was added. Cells with secondary antibodies were incubated for 45 min at 4° C. in the dark. After two washes with FACS buffer, cells were resuspended in 100p FACS buffer per well and analyzed in a FACS Canto (BD Biosciences).
Example 12: Detection of CDH17 Surface Expression Using Newly Generated CDH17 Antibodies In FIG. 13 is shown how the newly generated anti-CDH17H2 antibody (comprising a VH of SEQ ID NO: 116 and a VL of SEQ ID NO: 117 and an IgG1 sequence of SEQ ID NO: 121) is able to detect CDH17 protein surface expression. FACS analysis was performed as described in Example 6. The newly generated anti-CDH17H2 antibody was used as primary antibody for detection, followed by a secondary antibody rabbit anti-mouse IgG PE (Dako, R0439). […]

B1: anti-CDH17H2 antibody (antibody, V domains shown)
VH: QVQLVQSGAEVKKPGSSVKVSCKVSGYTFTDHTIHWMKQRPGQGLEWIGYIYPRDVITQYNEKFKGKVTLTADKSTSTAYMELSSLRSEDTAVYLCARWGYFYGSRSYYFDYWGQGTTVTVSS
VL: DIQMTQSQSSLSASVGDRVGITCKASQNVGTAVAWYQQKPGKAPKLLIYSASNRYTGVPSRFSGSGSGTDFTLTISSLQPKDFATYFCQQYSSYPWTFGQGTKLEIK
notes: also called parental CDH17 antibody
With B1, the binding result is reported as “binds”.
